Test results from US20260374857 (published 2026).
Where a chain is given by its changes, count along the chain named.

B1: Clone 9 (pGnRH-009) (antibody, V domains shown)
VH: EVQLVESGGGLVQSGGSLGLSCAASGRTFSGYAMGWFRQAPGKEREFVAAIRWSGGSTSYADSVKGRFTISRDNAKNTVYLQMNSLKPEDTAVYYCAADRGPSGSYYYPDYWGQGTQVTVSS
B2: 09Tm2 (antibody, V domains shown)
VH: B1 VH with E1D, S14P, G19R, W53F
B3: 09Tm1 (antibody, V domains shown)
VH: B1 VH with E1D, S14P, G19R
B4: Clone 1 (pGnRH-001) (antibody, V domains shown)
VH: QVQLVESGGGLVQAGGSVRLSCTASGRTFNNYVLGWFRQTPGKEREFVAAIRGTGSTTHADSVKGRFTISRDNAKNTVYLQMNSLKPEDTAVYYCAADDAYYPGNLRPQYWGQGTQVTVSS
B5: Clone 19 (pGnRH-019) (antibody, V domains shown)
VH: B4 VH with V18L, G53W, T57N
B6: Clone 1 Variant 3 (antibody, V domains shown)
VH: B4 VH with P103S, Q109H
B7: Clone 1 Variant 1 (antibody, V domains shown)
VH: B4 VH with Q109H
B8: Clone 1 Variant 4 (antibody, V domains shown)
VH: B4 VH with D99E, A100T, Q109H
B9: Clone 1 Variant 5 (antibody, V domains shown)
VH: B4 VH with D99R, A100T, N105A
B10: Clone 1 Variant 2 (antibody, V domains shown)
VH: B4 VH with D99R, Q109H
B11: Clone 9 Ala scanning 1 (antibody, V domains shown)
VH: B1 VH with D99A
B12: Clone 9 Ala scanning 11 (antibody, V domains shown)
VH: B1 VH with P109A
B13: Clone 9 Ala scanning 5 (antibody, V domains shown)
VH: B1 VH with S103A
B14: Clone 9 Ala scanning 9 (antibody, V domains shown)
VH: B1 VH with Y107A
B15: Clone 9 Ala scanning 8 (antibody, V domains shown)
VH: B1 VH with Y106A
B16: Clone 9 Ala scanning 12 (antibody, V domains shown)
VH: B1 VH with D110A
B17: Clone 9 Ala scanning 2 (antibody, V domains shown)
VH: B1 VH with R100A
B18: Clone 9 Ala scanning 4 (antibody, V domains shown)
VH: B1 VH with P102A
B19: Clone 9 Ala scanning 10 (antibody, V domains shown)
VH: B1 VH with Y108A
B20: Clone 9 Ala scanning 7 (antibody, V domains shown)
VH: B1 VH with S105A
B21: Clone 9 Ala scanning 3 (antibody, V domains shown)
VH: B1 VH with G101A
B22: Clone 9 Ala scanning 6 (antibody, V domains shown)
VH: B1 VH with G104A
B23: 01Tm1 (antibody, V domains shown)
VH: B4 VH with Q1D, A14P, V18L, T23A
B24: 01Tm2 (antibody, V domains shown)
VH: B4 VH with Q1D, A14P, V18L, T23A, N30Q
B25: 01Tm4 (antibody, V domains shown)
VH: B4 VH with Q1D, A14P, V18L, T23A, N30S
B26: 01Tm3 (antibody, V domains shown)
VH: B4 VH with Q1D, A14P, V18L, T23A, N31A
B27: Clone 1 Ala scanning 11 (antibody, V domains shown)
VH: B4 VH with Q109A
B28: Clone 1 Ala scanning 1 (antibody, V domains shown)
VH: B4 VH with D98A
B29: Clone 1 Ala scanning 4 (antibody, V domains shown)
VH: B4 VH with Y102A
B30: Clone 1 Ala scanning 3 (antibody, V domains shown)
VH: B4 VH with Y101A
B31: Clone 1 Ala scanning 8 (antibody, V domains shown)
VH: B4 VH with L106A
B32: Clone 1 Ala scanning 2 (antibody, V domains shown)
VH: B4 VH with D99A
B33: Clone 1 Ala scanning 7 (antibody, V domains shown)
VH: B4 VH with N105A
B34: Clone 1 Ala scanning 10 (antibody, V domains shown)
VH: B4 VH with P108A
B35: Clone 1 Ala scanning 9 (antibody, V domains shown)
VH: B4 VH with R107A
B36: Clone 1 Ala scanning 6 (antibody, V domains shown)
VH: B4 VH with G104A
B37: Clone 1 Ala scanning 5 (antibody, V domains shown)
VH: B4 VH with P103A

Target: T1, GnRH Bio-peptide 2 (not fully specified)
T1 chain: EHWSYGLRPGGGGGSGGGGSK
Assay: ELISA

Binder	EC50
B1	0.36 nM
B2	1.99 nM
B3	1.91 nM

Target: T2, GnRH Bio-peptide 1 (not fully specified)
T2 chain: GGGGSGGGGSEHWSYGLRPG
Assay: ELISA

Binder	EC50
B4	14 nM
B5	415000 nM

Target: T2, GnRH Bio-peptide 1
Assay: ELISA
Remark: another data set of the same source

Binder	EC50
B4	1.27 nM
B6	1.19 nM
B7	0.39 nM
B8	0.96 nM
B9	0.94 nM
B10	0.5 nM

Target: T1, GnRH Bio-peptide 2
Assay: SPR

Binder	Kd
B4	7.1 nM

Target: T2, GnRH Bio-peptide 1
Assay: SPR

Binder	Kd
B4	13.5 nM

Target: T2, GnRH Bio-peptide 1
Assay: ELISA
Remark: another data set of the same source

Binder	binding result
B11	no binding

Target: T2, GnRH Bio-peptide 1
Assay: ELISA
Remark: another data set of the same source

Binder	EC50
B1	14.4 nM
B12	375 nM
B13	49.5 nM
B14	56.4 nM
B15	554 nM
B16	365 nM
B17	29.9 nM
B18	51.3 nM
B19	61.2 nM
B20	15.6 nM
B21	307 nM
B22	524 nM

Target: T1, GnRH Bio-peptide 2
Assay: ELISA
Remark: another data set of the same source

Binder	EC50
B4	0.3 nM
B23	0.33 nM
B24	0.32 nM
B25	0.32 nM
B26	0.33 nM

Target: T2, GnRH Bio-peptide 1
Assay: ELISA
Remark: another data set of the same source

Binder	EC50
B4	0.41 nM
B23	0.34 nM
B24	0.32 nM
B25	0.32 nM
B26	0.4 nM

Target: T2, GnRH Bio-peptide 1
Assay: ELISA
Remark: another data set of the same source

Binder	EC50
B1	8.16 nM
B2	1.37 nM
B3	0.99 nM

Target: T2, GnRH Bio-peptide 1
Assay: ELISA
Remark: another data set of the same source

Binder	EC50
B4	4 nM
B27	11.9 nM
B28	509 nM
B29	152 nM
B30	> 1000 nM
B31	4 nM
B32	19.8 nM
B33	4.3 nM
B34	65.7 nM
B35	4.2 nM
B36	26.2 nM
B37	16.9 nM
